Data from patent publication US20250076314A1 (NORDIC BIOSCIENCE A S, published 2025).
Where no end group is shown, it is not given here. The star is where a group is joined. Biotin = O=C1N[C@H]2[C@H](CS[C@H]2CCCCC(=O)*)N1

T1: Coating peptide PIQWNAPQPS-K-Biotin (human)
T1 construct: also called biotin-labelled peptide
T1 peptide: PIQWNAPQPSK(Biotin)

T2: Truncated peptide IQWNAPQPS
T2 construct: also called deselection peptide
T2 peptide: IQWNAPQPS

T3: Nonsense peptide LHDSNPYPRR
T3 construct: also called nonsense selection peptide; deselection peptide
T3 peptide: LHDSNPYPRR

T4: Elongated peptide HPIQWNAPQPS
T4 construct: also called deselection peptide
T4 peptide: HPIQWNAPQPS

T5: Nonsense coating peptide LHDSNPYPRR-K-Biotin
T5 peptide: LHDSNPYPRRK(Biotin)

B1: Selection peptide PIQWNAPQPS (peptide)
peptide: PIQWNAPQPS
notes: Synthetic peptide from Genscript
B2: FN-ANA monoclonal antibody (mAb raised against the FN-ANA neoepitope sequence …) (antibody, mouse IgG1, kappa, V domains shown)
VH: QVQLQQSGAELVRPGASVKLSCKALGYTLTDYEMHWVKQTPVHGLEWIGAIHPGRGAAAYNQKFKDKATLTADKSSSTAYMELSSLTSEDSAVYYCTRSEEYGNYEDAMDYWGQGTSVTVSS
VL: DVVMTQTPLSLPVSLGDQASISCRSSQSLVHSNGNTYLHWFLQKPGQSPKLLIYKVSNRFSGVPDRFSGSGSGTDFTLKISRVEAEDLGVYFCSQSTHVPYTFGGGTKLEIKR
modifications: antibody labeled with HRP (site not stated)
notes: Mouse IgG1/kappa from a hybridoma, purified and HRP-labelled for the assay; also called FN-ANA mAb; FN-ANA antibody

Assays:
[1] = biological target: B2; assay: competitive chemiluminescent ELISA, ten independent runs: selection peptide competes with plate-bound coating peptide …-K-biotin for HRP-labelled mAb; 20 h at 4 C
Method: The final FN-ANA assay parameters were determined empirically by several optimizing experiments where various reagents, concentrations, incubation time and temperature were investigated in addition to testing reactivity to selection and deselection peptides (Table 1) and human sera. The final FN-ANA competitive ELISA procedure was conducted with chemiluminescence detection and determined as follows: 100 μL of 3 ng/ml coating peptide ([…]-K-biotin (SEQ ID NO: 5)) in coating buffer (50 mM tris-buffered saline (TBS) with 1% (w/v) bovine serum albumin, 0.1% (w/v) Tween-20, and 0.36% (v/v) Bronidox (BTB), 4 g/L NaCl, 0.20 g/L KCl, pH 8.0) was added to each well in a 96-well streptavidin-coated microtiter white plate (cat. No. 655995, Greiner Bio-one, Taufkirchen, Germany), whereafter it was incubated for 30 minutes at 20° C. with 300 RPM orbital shaking. After incubation, the plate was emptied and washed 5 times in washing buffer (consisting of 25 mM Tris, 3.0 g/L NaCl, 0.1% (w/v) Tween-20, pH 7.2). […] Following a washing step, 100 µL/well of chemiluminescence substrate was added, and the plate was incubated for a total of 3 minutes in darkness with 1 minute of 300 RPM orbital shaking before detection with luminescence on a SpectraMax i3x microplate reader (Molecular Devices, Sunnyvale CA, USA) at 1 second integration time at all wavelengths as microplate reader settings. […]

[2] = biological target: T1, Coating peptide PIQWNAPQPS-K-Biotin; assay: competitive ELISA, colorimetric detection
[3] = biological target: B1; assay: competitive ELISA, colorimetric detection
[4] = biological target: T2, Truncated peptide IQWNAPQPS; assay: competitive ELISA, colorimetric detection (OD 450 nm), two-fold diluted peptides
Method: (§1) No. 655995, Greiner Bio-one, Taufkirchen, Germany), whereafter it was incubated for 30 minutes at 20° C. with 300 RPM orbital shaking. After incubation, the plate was emptied and washed 5 times in washing buffer (consisting of 25 mM Tris, 3.0 g/L NaCl, 0.1% (w/v) Tween-20, pH 7.2). A 10-point calibration curve with 2-fold dilution was prepared from a start concentration of 200 ng/ml selection peptide ([…] (SEQ ID NO: 1)) in incubation buffer (50 mM TBS-BTB, 4.0 g/L NaCl, 0.20 g/L KCl, 5% Liquid II (cat. No. 11941836001, Roche), pH 8.0). 20 μL/well of standards, assay controls, and serum samples were added to appropriate wells in double determinations followed by the addition of 100 μL/well of 6 ng/ml of HRP-labelled mAb in incubation buffer, whereafter plates were incubated at 4° C. for 20 hours with 300 RPM orbital shaking. The following day, chemiluminescence substrate (cat. No. 11582950001, Roche Diagnostics) was prepared according to manufacturer's instructions and mixed by rotation in the dark for 20 minutes at room temperature prior to plate analysis. Following a washing step, 100 µL/well of chemiluminescence substrate was added, and the plate was incubated for a total of 3 minutes in darkness with 1 minute of 300 RPM orbital shaking before detection with luminescence on a SpectraMax i3x microplate reader (Molecular Devices, Sunnyvale CA, USA) at 1 second integration time at all wavelengths as microplate reader settings. […]
(§2) Antibody specificity was evaluated using the synthetic peptides and determined as a percentage of signal inhibition of two-fold diluted selection and deselection peptides (elongated, truncated, and nonsense) in addition to a non-sense coating (peptide details are listed in Table 1) using a colorimetric detection method with 96-well streptavidin-coated microtiter plate (cat. No. 11940279, Roche Diagnostics, Hvidovre, Denmark) and using the above procedure with the following exceptions: Instead of adding chemiluminescent substrate, the colorimetric substrate 3,3′,5,5′-tetramethylbenzidine One (cat. […]

[5] = biological target: T3, Nonsense peptide LHDSNPYPRR; assay: as above
Method: as §1, §2

[6] = biological target: T4, Elongated peptide HPIQWNAPQPS; assay: as above
Method: as §1, §2

[7] = biological target: T5, Nonsense coating peptide …; assay: ELISA with the nonsense coating peptide on a streptavidin plate, colorimetric detection (OD 450 nm)

Binder	IC50 [1]	binding result [2]	binding result [3]	binding result [4]	binding result [5]	binding result [6]	binding result [7]
B1	8.86 ng/mL	–	–	–	–	–	–
B2	–	binds	binds	no binding	no binding	no binding	no binding
